Measurements from patent US20110020347A1.

Biological target: mouse CXCL14 (R&D Systems) (mouse) (UniProt Q9WUQ5)
Experiment: cell-based or functional assay

UniProt Q9WUQ5, sequence (Q9WUQ5 23-99): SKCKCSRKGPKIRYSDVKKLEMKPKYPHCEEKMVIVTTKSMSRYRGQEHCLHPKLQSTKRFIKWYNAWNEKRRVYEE

inhibition of attraction (chemotaxis) of forskolin-stimulated C2C12 cells by mouse CXCL14, antibody at 10 µg/ml, CXCL14 at 100 nM: 54%
Substance: rat anti-mouse CXCL14 monoclonal antibody (MAB730, R&D Systems)
